Results reported in PMC9647470.

Assay: cycloheximide chase, endogenous CK2α, HEK293T
Conditions: glycan lost; control: untreated

B1: Casein kinase 2 alpha (CK2α): OSMI-4b (protein)
parent chain: MSGPVPSRARVYTDVNTHRPREYWDYESHVVEWGNQDDYQLVRKLGRGKYSEVFEAINITNNEKVVVKILKPVKKKKIKREIKILENLRGGPNIITLADIVKDPVSRTPALVFEHVNNTDFKQLYQTLTDYDIRFYMYEILKALDYCHSMGIMHRDVKPHNVMIDHEHRKLRLIDWGLAEFYHPGQEYNVRVASRYFKGPELLVDYQMYDYSLDMWSLGCMLASMIFRKEPFFHGHDNYDQLVRIAKVLGTEDLYDYIDKYNIELDPRFNDILGRHSRKRWERFVHSENQHLVSPEALDFLDKLLRYDHQSRLTAREAMEHPYFYTVVKDQARMGSSSMPGGSTPVSSANMMSGISSVPTPSPLGPLAGSPVIAAANPLGMPVPAAAGAQQ
In the case of B1, the degradation_or_half_life is reported as “no change”.
